Consider two molecules from patent publication US6500647 (MOGAM BIOTECHNOLOGY RESEARCH INSTITUTE, dated 2002).

The target of assay [1] is T1, PTH receptor of UMR106 cell line (rat osteoblast-like osteosarcoma cell line) (rat, UniProt P25961 27-591).
T1 sequence (looked up): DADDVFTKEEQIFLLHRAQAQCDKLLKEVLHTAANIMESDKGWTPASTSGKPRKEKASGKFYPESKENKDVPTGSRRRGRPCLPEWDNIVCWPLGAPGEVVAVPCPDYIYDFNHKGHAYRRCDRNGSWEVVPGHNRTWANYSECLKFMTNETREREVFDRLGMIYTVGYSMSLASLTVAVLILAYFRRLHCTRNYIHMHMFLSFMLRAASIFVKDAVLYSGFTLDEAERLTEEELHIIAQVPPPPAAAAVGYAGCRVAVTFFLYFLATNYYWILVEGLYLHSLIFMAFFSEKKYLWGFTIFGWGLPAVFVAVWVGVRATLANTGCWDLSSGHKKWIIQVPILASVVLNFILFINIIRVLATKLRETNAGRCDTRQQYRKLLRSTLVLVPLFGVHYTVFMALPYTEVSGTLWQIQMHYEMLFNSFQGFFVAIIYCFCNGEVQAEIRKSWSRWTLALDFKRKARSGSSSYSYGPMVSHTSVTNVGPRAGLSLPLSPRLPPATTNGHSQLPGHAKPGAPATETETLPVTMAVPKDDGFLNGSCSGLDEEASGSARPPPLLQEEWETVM
In words: cell-based or functional assay.

In assay [2] the target is T1, PTH receptor of UMR106 cell line (rat …). Put plainly: competition with 125I-(Nle8,18Tyr34)-bPTH (1-34) for binding to UMR106 cells, 15 C, 4 h. The protocol:
A binding test to PTH receptor was carried out as followings (see: Chohei Shigeno et al., The Journal of Biological Chemistry, 263(8):3864–3871(1988)): 10^5 UMR106 cells per well was added into a 24 well-plate and cultured for 4 to 8 days. Medium was exchanged every two days and it was exchanged daily at 3 days before the test. On the other hand, in order to prepare (Nle^{8,18}Tyr^34)-bovine PTH (1–34)-NH_2(bPTH (1–34)) (see: Gino V. Segre et al., JBC, 254(15) :6980–6986(1979)) which was labelled with a radioactive isotope, ^125I at a tyrosine residue of carboxy-terminus, bPTH (1–34) was iodinated with Na^125I using chloramine T (Sigma Chemical Co., USA) as a catalyst. […]
Binding affinity of PTH to its receptor was determined by comparing competitive inhibition of rhPTH (1–84) and shPTH (1–84) against ligand binding to the receptor by using the ^125I-labelled (Nle^{8,18}Tyr^34)-bPTH (1–34) as a ligand. […] The solution obtained after extraction was mixed with the solution obtained after washing with 0.5 ml of the binding buffer and counted for its radioactivity employing γ-counter.
Specific binding was determined by subtracting value of nonspecific binding measured by using each competitive hormone of 1 mM from value of binding radioactivity measured above.

B1: synthetic human PTH (shPTH (1-84), Sigma Chemical Co., USA) (ligand, UniProt P01270 32-115, looked up)
chain: SVSEIQLMHNLGKHLNSMERVEWLRKKLQDVHNFVALGAPLAPRDAGSQRPRKKEDNVLVESHEKSLGEADKADVNVLTKAKSQ
notes: mature; Control hormone, bought; also called synthetic PTH
In the case of B1, the “EC50 (concentration of hormone required for stimulating production of intracellular cAMP to reach an increase of 50%)” value in assay [1] was determined as 1.9 nM. For the same molecule, the IC50 in assay [2] was determined as 18.6 nM.

B2: human recombinant PTH (rhPTH (1-84)) (ligand, UniProt P01270 32-115, looked up)
chain: B1 chain
notes: mature; also called recombinant human PTH; purified human PTH
In the case of B2, the “EC50 (concentration of hormone required for stimulating production of intracellular cAMP to reach an increase of 50%)” value in assay [1] was 1.3 nM. This molecule yielded an IC50 in assay [2] of 17.3 nM.

Usually IC50 stands for the concentration that inhibits the measured activity by half. The low end stands for greater potency, the high end for weaker potency.
